Measured values reported in patent US20260146247A1.

Target: CD4 (human) (UniProt P01730)
Assay: cell-based or functional assay

HIV-1 envelope glycoprotein (Env) (from UniProt P04578 33-856)
transduction (mNeonGreen+) of CD4+ cells in a mixture of CD4+ and CD8+ primary human T cells treated with Env-Cas9-VLPs, highest treatment dose: 53.2%
